System: engineered chimeric receptor SEQ ID NO: 33 and its mutants (human α7-nAChR ligand binding domain / human GlyRα1 ion pore domain) in Lenti-X 293T cells
Test: YFP fluorescence quenching anion reporter plate reader assay (percent quench, EC50)
Type: cell-based
Conditions: for YFP fluorescence quenching using CNL001 (percent quench): receptor named in row; for YFP fluorescence quenching using Facinicline, 30 nM fac: ligand Facinicline 30 nM; for YFP fluorescence quenching using Facinicline, 300 nM fac: ligand Facinicline 300 nM; for YFP fluorescence quenching using Facinicline, 30 uM fac: ligand Facinicline 30 uM; for YFP fluorescence quenching using TC-6987, 1 uM tc6987: ligand TC-6987 1 uM; for YFP fluorescence quenching using TC-6987, 10 uM tc6987: ligand TC-6987 10 uM; for YFP fluorescence quenching using TC-6987, 500 uM tc6987: ligand TC-6987 500 uM; for YFP fluorescence quenching using Varenicline, 3 nM var: ligand Varenicline 3 nM; for YFP fluorescence quenching using Varenicline, 30 nM var: ligand Varenicline 30 nM; for YFP fluorescence quenching using Varenicline, 300 nM var: ligand Varenicline 300 nM; for YFP fluorescence quenching using Varenicline, 500 nM var: ligand Varenicline 500 nM; for YFP fluorescence quenching using Varenicline, 1 uM var: ligand Varenicline 1 uM
Summary of the method: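 Lenti-X 293T cells co-expressing an anion-quenchable YFP were transiently transfected with receptor DNA, then ligand was added in NaI-substituted buffer (pH 7.2) after 30 min at 37 °C. Fluorescence was read about 2 min; percent quench = mean of last 10 s over 15 s pre-ligand baseline.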

[1] = 1 nM CNL001, first column so headed
[2] = 1 nM CNL001, second column so headed
[3] = 3 nM brd (TC-5619/Bradanicline)
[4] = 10 nM CNL001, first column so headed
[5] = 10 nM CNL001, second column so headed
[6] = 30 nM brd (TC-5619/Bradanicline)
[7] = 50 nM CNL001, first column so headed
[8] = 50 nM CNL001, second column so headed
[9] = 100 nM CNL001, first column so headed
[10] = 100 nM CNL001, second column so headed
[11] = 300 nM brd (TC-5619/Bradanicline)
[12] = 1 uM CNL001, first column so headed
[13] = 1 uM CNL001, second column so headed

B1: CODA407: engineered receptor: Y210F in SEQ ID NO: 33 (protein)
chain: MRCSPGGVWLALAASLLHVSLQGEFQRKLYKELVKNYNPLERPVANDSQPLTVYFSLSLLQIMDVDEKNQVLTTNIWLQMSWTDHYLQWNVSEYPGVKTVRFPDGQIWKPDILLYNSADERFDATFHTNVLVNSSGHCQYLPPGIFKSSCPMDLKNFPMDVQTCKLKFGSWSYGGWSLDLQMQEADISGYIPNGEWDLVGIPGKRSERFFECCKEPYPDVTFTVTMRRRMGYYLIQMYIPSLLIVILSWISFWINMDAAPARVGLGITTVLTMTTQSSGSRASLPKVSYVKAIDIWMAVCLLFVFSALLEYAAVNFVSRQHKELLRFRRKRRHHKSPMLNLFQEDEAGEGRFNFSAYGMGPACLQAKDGISVKGANNSNTTNPPPAPSKSPEEMRKLFIQRAKKIDKISRIGFPMAFLIFNMFYWIIYKIVRREDVHNQ
modifications: synthetic sequence of chimeric LGIC
- YFP fluorescence quenching using CNL001 (percent quench) [1]: −10.845%
- YFP fluorescence quenching using CNL001 (percent quench) [2]: −2.629%
- YFP fluorescence quenching using TC-5619/Bradanicline (percent quench) [3]: −0.53%
- YFP fluorescence quenching using CNL001 (percent quench) [4]: 4.66%
- YFP fluorescence quenching using CNL001 (percent quench) [5]: 12.246%
- YFP fluorescence quenching using TC-5619/Bradanicline (percent quench) [6]: 8.71%
- YFP fluorescence quenching using CNL001 (percent quench) [7]: 29.307%
- YFP fluorescence quenching using CNL001 (percent quench) [8]: 41.78%
- YFP fluorescence quenching using ABT-126 (percent quench) (50 nM abt (ABT-126)): −13.07%
- YFP fluorescence quenching using CNL001 (percent quench) [9]: 50.654%
- YFP fluorescence quenching using CNL001 (percent quench) [10]: 62.054%
- YFP fluorescence quenching (percent quench) (100 nM CNL002): −12.47%
- YFP fluorescence quenching using ABT-126 (percent quench) (100 nM abt (ABT-126)): 0.1%
- YFP fluorescence quenching using AZD-0328 (percent quench) (100 nM azd0328): 0.85%
- YFP fluorescence quenching using ABT-126 (percent quench) (300 nM abt (ABT-126)): 5.97%
- YFP fluorescence quenching using AZD-0328 (percent quench) (300 nM azd0328): 1.25%
- YFP fluorescence quenching using TC-5619/Bradanicline (percent quench) [11]: 76.26%
- YFP fluorescence quenching using CNL001 (percent quench) [12]: 81.742%
- YFP fluorescence quenching using CNL001 (percent quench) [13]: 81.304%
- YFP fluorescence quenching (percent quench) (1 uM CNL002): −3.93%
- YFP fluorescence quenching using ABT-126 (percent quench) (1 uM abt (ABT-126)): 50.23%
- YFP fluorescence quenching (percent quench) (10 uM ach (acetylcholine)): −3.75%
- YFP fluorescence quenching (percent quench) (30 uM CNL002): 80.97%
- YFP fluorescence quenching using AZD-0328 (percent quench) (30 uM azd0328): 82.08%
- YFP fluorescence quenching (percent quench) (100 uM ach (acetylcholine)): −1.6%
- YFP fluorescence quenching (percent quench) (1 mM ach (acetylcholine)): 71.65%
- YFP fluorescence quenching (percent quench) (3 mM ach (acetylcholine)): 79.09%
- YFP fluorescence quenching using Facinicline, 30 nM fac: −21.94
- YFP fluorescence quenching using Facinicline, 300 nM fac: −22.46
- YFP fluorescence quenching using Facinicline, 30 uM fac: 82.63
- YFP fluorescence quenching using TC-6987, 1 uM tc6987: −15.22
- YFP fluorescence quenching using TC-6987, 10 uM tc6987: −19.89
- YFP fluorescence quenching using TC-6987, 500 uM tc6987: −33.32
- YFP fluorescence quenching using Varenicline, 3 nM var (first column): 2.441
- YFP fluorescence quenching using Varenicline, 3 nM var (second column): 7.326
- YFP fluorescence quenching using Varenicline, 30 nM var (first column): 1.275
- YFP fluorescence quenching using Varenicline, 30 nM var (second column): 12.96
- YFP fluorescence quenching using Varenicline, 300 nM var (first column): 13.119
- YFP fluorescence quenching using Varenicline, 300 nM var (second column): 2.355
- YFP fluorescence quenching using Varenicline, 500 nM var (first column): 11.539
- YFP fluorescence quenching using Varenicline, 500 nM var (second column): 6.571
- YFP fluorescence quenching using Varenicline, 1 uM var (first column): 8.397
- YFP fluorescence quenching using Varenicline, 1 uM var (second column): 7.309

B2: CODA409: engineered receptor: Y210W in SEQ ID NO: 33 (protein)
chain: MRCSPGGVWLALAASLLHVSLQGEFQRKLYKELVKNYNPLERPVANDSQPLTVYFSLSLLQIMDVDEKNQVLTTNIWLQMSWTDHYLQWNVSEYPGVKTVRFPDGQIWKPDILLYNSADERFDATFHTNVLVNSSGHCQYLPPGIFKSSCPMDLKNFPMDVQTCKLKFGSWSYGGWSLDLQMQEADISGYIPNGEWDLVGIPGKRSERFWECCKEPYPDVTFTVTMRRRMGYYLIQMYIPSLLIVILSWISFWINMDAAPARVGLGITTVLTMTTQSSGSRASLPKVSYVKAIDIWMAVCLLFVFSALLEYAAVNFVSRQHKELLRFRRKRRHHKSPMLNLFQEDEAGEGRFNFSAYGMGPACLQAKDGISVKGANNSNTTNPPPAPSKSPEEMRKLFIQRAKKIDKISRIGFPMAFLIFNMFYWIIYKIVRREDVHNQ
modifications: synthetic sequence of chimeric LGIC
- YFP fluorescence quenching using CNL001 (percent quench) [1]: −8.914%
- YFP fluorescence quenching using CNL001 (percent quench) [2]: −14.319%
- YFP fluorescence quenching using TC-5619/Bradanicline (percent quench) (1 nM brd (TC-5619/Bradanicline)): −13.45%
- YFP fluorescence quenching using TC-5619/Bradanicline (percent quench) [3]: −0.64%
- YFP fluorescence quenching using CNL001 (percent quench) [4]: −1.444%
- YFP fluorescence quenching using CNL001 (percent quench) [5]: 4.393%
- YFP fluorescence quenching using TC-5619/Bradanicline (percent quench) (10 nM brd (TC-5619/Bradanicline)): 37.3%
- YFP fluorescence quenching using TC-5619/Bradanicline (percent quench) [6]: 76.36%
- YFP fluorescence quenching using CNL001 (percent quench) [7]: 11.897%
- YFP fluorescence quenching using CNL001 (percent quench) [8]: 11.434%
- YFP fluorescence quenching using ABT-126 (percent quench) (50 nM abt (ABT-126)): 8.23%
- YFP fluorescence quenching using CNL001 (percent quench) [9]: 12.719%
- YFP fluorescence quenching using CNL001 (percent quench) [10]: 16.053%
- YFP fluorescence quenching (percent quench) (100 nM CNL002): −14.92%
- YFP fluorescence quenching using ABT-126 (percent quench) (100 nM abt (ABT-126)): 55.53%
- YFP fluorescence quenching using AZD-0328 (percent quench) (100 nM azd0328): −6.57%
- YFP fluorescence quenching using TC-5619/Bradanicline (percent quench) (100 nM brd (TC-5619/Bradanicline)): 72.72%
- YFP fluorescence quenching using ABT-126 (percent quench) (300 nM abt (ABT-126)): 74.82%
- YFP fluorescence quenching using AZD-0328 (percent quench) (300 nM azd0328): −4.84%
- YFP fluorescence quenching using TC-5619/Bradanicline (percent quench) [11]: 75.47%
- YFP fluorescence quenching using ABT-126 (percent quench) (500 nM abt (ABT-126)): 77.39%
- YFP fluorescence quenching using CNL001 (percent quench) [12]: 14.077%
- YFP fluorescence quenching using CNL001 (percent quench) [13]: 15.495%
- YFP fluorescence quenching (percent quench) (1 uM CNL002): −0.85%
- YFP fluorescence quenching using ABT-126 (percent quench) (1 uM abt (ABT-126)): 77.77%
- YFP fluorescence quenching using TC-5619/Bradanicline (percent quench) (1 uM brd (TC-5619/Bradanicline)): 78.73%
- YFP fluorescence quenching using ABT-126 (percent quench) (3 uM abt (ABT-126)): 69.33%
- YFP fluorescence quenching using ABT-126 (percent quench) (10 uM abt (ABT-126)): 74.79%
- YFP fluorescence quenching (percent quench) (10 uM ach (acetylcholine)): −5.43%
- YFP fluorescence quenching (percent quench) (30 uM CNL002): 29.62%
- YFP fluorescence quenching using ABT-126 (percent quench) (30 uM abt (ABT-126)): 75.61%
- YFP fluorescence quenching using AZD-0328 (percent quench) (30 uM azd0328): 81.64%
- YFP fluorescence quenching using ABT-126 (percent quench) (50 uM abt (ABT-126)): 75.72%
- YFP fluorescence quenching using ABT-126 (percent quench) (100 uM abt (ABT-126)): 78.52%
- YFP fluorescence quenching (percent quench) (100 uM ach (acetylcholine)): 17.14%
- YFP fluorescence quenching (percent quench) (1 mM ach (acetylcholine)): 78.84%
- YFP fluorescence quenching (percent quench) (3 mM ach (acetylcholine)): 78.55%
- YFP fluorescence quenching using Facinicline, 30 nM fac: −10.93
- YFP fluorescence quenching using Facinicline, 300 nM fac: −5.82
- YFP fluorescence quenching using Facinicline, 10 uM fac (ligand Facinicline 10 uM): 60.97
- YFP fluorescence quenching using Facinicline, 30 uM fac: 57.77
- YFP fluorescence quenching using TC-6987, 1 uM tc6987: 62.82
- YFP fluorescence quenching using TC-6987, 10 uM tc6987: 78.66
- YFP fluorescence quenching using TC-6987, 500 uM tc6987: 70.35
- YFP fluorescence quenching using Varenicline, 3 nM var (first column): 7.776
- YFP fluorescence quenching using Varenicline, 3 nM var (second column): −2.964
- YFP fluorescence quenching using Varenicline, 30 nM var (first column): −5.568
- YFP fluorescence quenching using Varenicline, 30 nM var (second column): 3.024
- YFP fluorescence quenching using Varenicline, 300 nM var (first column): 2.815
- YFP fluorescence quenching using Varenicline, 300 nM var (second column): 3.06
- YFP fluorescence quenching using Varenicline, 500 nM var (first column): 1.766
- YFP fluorescence quenching using Varenicline, 500 nM var (second column): 2.819
- YFP fluorescence quenching using Varenicline, 1 uM var (first column): 1.844
- YFP fluorescence quenching using Varenicline, 1 uM var (second column): −4.059
